According to patent publication US20170246255:

Tests used:
[1] = tested on: T1, model peptide analog WALAPRXFA (X = tertiary leucine)
T1 sequence: WALAPRXFA

[2] = tested on: T2, model thrombin substrate peptide WALAPRSFA
T2 sequence: WALAPRSFA

Q: Which “cleavage of the peptide by the enzyme, C18 reverse phase HPLC and mass spectra after 4 hours at 23° C. with 10 nM thrombin” value [1] does the source give for thrombin here?
A: The value was “the TLE substituted peptide analog was not cleaved by thrombin under these conditions”.

Q: What about the “cleavage of the peptide by the enzyme, C18 reverse phase HPLC and mass spectra after 4 hours at 23° C. with 10 nM thrombin” value [2] of the same substance?
A: The value was “unmodified peptide was efficiently cleaved by thrombin to yield the cleavage product WALAPR”.
